Assay results reported in patent US20150293026A1, “Automated system for tissue histomorphometry” (priority 2010, published 2015).

Tested on: mineralizing bone surface and GFP labeled osteoblast surface of long bones (femur)
Experiment: Automated bone histomorphometry of femur trabecula in PTH treated GFP reporter mice
Assay type: in vivo
Conditions: for AC measurements CL (common surface area of GFP marked osteoblast and AC stained label/bone surface area) / AC measurements NCL (surface area of AC stained label only/bone surface area) / AC measurements TL (total AC stained label area/bone surface area) / GFP measurements CL / GFP measurements NCL / GFP measurements TL: femur trabecula, day 7, mean
Description: The combination of image analysis techniques (registration, segmentation, smoothing and thresh-holding) is amenable to automating histomorphometry analysis. We have used long bones (femur) of PTH treated, skeletally mature mice (8˜9 month old) whose transgenic expression of Col3.6GFP or Col2.3GFP is expected to be uniformly low. Each study had 2 groups of treatment experiments, one that is PTH treated and one that is vehicle (0.001 N HCl containing 1 mg/ml BSA) treated. Each treated study was terminated 1 day after 2 days, 3 days, and 7 days dose of treatment has been administered. A single red fluorochrome label (AC, alizarin complexone, 30 mg/Kg IP) has been administered concurrently with the final PTH dose approximately 24 hours prior to end of each study. The experimental quantification includes GFP labeled osteoblast surface, mineralizing bone surface and total bone surface.
We need to measure both the AC stained label areas and GFP marked osteoblast areas that are commonly related to the same bone surface region. Often, the distance between the AC stained labels and the GFP marked osteoblast are not uniform, and sometimes they may be located far away. Our approach is to find the reference bone surfaces first, and then move the related AC stained labels and GFP marked osteoblast onto the reference bone surfaces using morphological transformation. FIG. 7(b) is the transformed image of FIG. 7(a). The red and green colors show, respectively, the AC stained labels and the GFP marked osteoblast on the bone surface. The yellow color is introduced to represent the common areas of AC stained labels and GFP marked osteoblast. From this projected image, we are able to calculate the ratios of the AC stained labels and GFP marked osteoblast of interest.
Here PTH treated and vehicle treated studies use poBCol3.6GFP-Tpz and pOBCol2.3GFP-Emd, respectively, where the former is control and the latter is test. The measurement follows the bone volume measurement guideline presented in [Parfitt et al., 1987]. In Table 3, the following notations are used and each measurement is the percentage of 2D perimeter measurement over the total 2D bone surface area (Red=AC measurements, Cyan=GFP measurements).
TL=total AC stained label area/bone surface area; CL=common surface area of the GFP marked osteoblast and AC stained label/bone surface area; NCL=surface area of the AC stained label only/bone surface area; TG=total surface area of the green GFP marked osteoblast/bone surface area; GL=common surface area of the GFP marked osteoblast and AC stained label/bone surface area; NGL=surface area of the GFP marked osteoblast only/bone surface area.

B1: PTH: PTH given to skeletally mature transgenic GFP reporter mice for 2, 3 or 7 days; anticipated bone-forming effect (peptide, UniProt P01270 32-115, looked up)
Parathyroid hormone: SVSEIQLMHNLGKHLNSMERVEWLRKKLQDVHNFVALGAPLAPRDAGSQRPRKKEDNVLVESHEKSLGEADKADVNVLTKAKSQ
modifications: Parathyroid hormone
AC measurements CL (common surface area of GFP marked osteoblast and AC stained label/bone surface area) (Col 2.3-Emd mice): 3.82%
AC measurements NCL (surface area of AC stained label only/bone surface area) (Col 2.3-Emd mice): 12.65%
AC measurements TL (total AC stained label area/bone surface area) (Col 2.3-Emd mice): 16.48%
GFP measurements CL (Col 2.3-Emd mice): 3.82%
GFP measurements NCL (Col 2.3-Emd mice): 8.00%
GFP measurements TL (Col 2.3-Emd mice): 11.83%
AC measurements CL (common surface area of GFP marked osteoblast and AC stained label/bone surface area) (Col 3.6-Tpz mice): 5.47%
AC measurements NCL (surface area of AC stained label only/bone surface area) (Col 3.6-Tpz mice): 25.48%
AC measurements TL (total AC stained label area/bone surface area) (Col 3.6-Tpz mice): 31.23%
GFP measurements CL (Col 3.6-Tpz mice): 5.74%
GFP measurements NCL (Col 3.6-Tpz mice): 4.24%
GFP measurements TL (Col 3.6-Tpz mice): 9.99%
calcified bone areas (TL), PTH treated case compared with vehicle treated case (day 7, in words): more calcified bone areas (TL)
number of GFP marked osteoblast (TG), PTH treated case compared with vehicle treated case (day 7, in words): more
